Laboratory results reported in US20230285523A1, “USE OF ELAFIN IN THE TREATMENT OF COVID-19” (priority 2021, published 2023).
No end group written: not given here.

What was measured:
[1] = test system: transcription factors AP-1 and NF-κB; settings: U937 cells; cited from earlier work
[2] = in vivo; cited from earlier work
[3] = after heart transplantation, myocardial infarction, skeletal muscle ischemia; cited from earlier work
[4] = test system: MCP-1 (macrophage chemoattractant protein-1; CCL2); settings: U937 cells, LPS; cited from earlier work
[5] = One phase I and two phase II randomized double-blind placebo-controlled clinical trials in a surgery program; assay type: in vivo
From the text: The clinical trials in the surgery development program established an intravenous single dosing scheme with perioperative administration via infusion.

[6] = Phase I clinical study, single intravenous doses; assay type: in vivo; settings: single intravenous doses of 20 to 400 mg
20 S proteasome = settings: cited from earlier work
[7] = Two clinical Phase II studies, intravenous doses; assay type: in vivo; settings: intravenous doses of 200 mg
[8] = rats, cited from earlier work
[9] = after esophageal cancer surgery

Row | Substance | LPS-induced activation of AP-1 and NF-κB [1] | ventilator induced injury [2] | reperfusion injury [3] | production of MCP-1 [4] | kidney, liver and heart organ damages [5, 9] | organ protective effect (length of ICU stay) [5, 9] | tolerability of intravenous application ([5]; one phase I and two phase II trials, surgery program) | safety concerns ([5]; surgery program clinical trials) | tolerability [6] | inhibition of peptidase activities associated with the 20 S proteasome (20 S proteasome) | tolerability [7] | accumulation in other organs, including the brain ([8]; 24 h p.i.) | radioactivity in the dissected kidney ([8]; 24 h p.i.) [%ID/g] | terminal elimination half-life in blood ([8]; bolus intravenous injection, blood) [h] | maximum accumulation in the kidney ([8]; kidney, 5 min post injection, SPECT) | share of detected radioactivity in the kidney identified as not metabolized ([8]; kidney, 24 h p.i.) [%]
1 | Tiprelestat: INN name of elafin; recombinant human protein of 57 amino acids, about 6 kDa, inhibitor of elastase and proteinase 3 (AQEPVKGPVSTKPGSCPIILIRCAMLNPPNRCLKDTDCPGIKKCCEGSCGMACFVPQ; listed as Homo sapiens) | inhibited | able to reduce | suppresses reperfusion injury | inhibition of the production | trend towards lower | organ protective effect was confirmed | well tolerated | No major safety concerns were observed | well tolerated | no inhibition | well tolerated | – | – | – | – | –
2 | 99mTc-elafin: 99mTc-labeled elafin used for SPECT pharmacokinetics in rats (AQEPVKGPVSTKPGSCPIILIRCAMLNPPNRCLKDTDCPGIKKCCEGSCGMACFVPQ; ends and bridges not checked; also: 99mTc label; UniProt P19957 61-117, looked up) | – | – | – | – | – | – | – | – | – | – | – | no accumulation | 4.98±1.24 | 3.33 | 8.5%±0.1% | 30
